This assay addresses T1, CL-K1 (Homo sapiens, UniProt Q9BWP8).
T1 construct: For full-length protein, the cDNA was cloned into the polylinker region of expression vector pED; made in house; host or cells: Chinese hamster ovary cells
Description: Surface plasmon resonance of CL-K1 binding to glycoproteins. To be noted: glycoprotein starting concentration 200 nM. The method, then:
Figure 1 Glycoprotein binding and complement activation by CL-K1. A) Immunoblot of CL-K1 binding to immobilised mammalian and yeast glycoproteins. B) Surface plasmon resonance of CL-K1 binding to glycoproteins. […] C3b and its breakdown products were detected by absorbance using an anti-human C3c antibody with alkaline phosphatase-conjugated goat anti-rabbit secondary antibody and p-nitrophenyl phosphate as the substrate. Protein concentrations were calculated based on the molecular masses of CL-K1 and MBL trimers (78 kDa in each case). CL-K1, collectin-K1; MBL, mannan-binding lectin.
CL-K1 was immobilised on the surface of a GLM sensor chip (Bio-Rad Laboratories Ltd (Hemel Hempstead, UK)) by amine coupling. Binding was measured in 10 mM Tris–HCl, pH 7.4 containing 140 mM NaCl, 2 mM CaCl2 and 0.005% Tween 20 at a flow rate of 25 μl/minute and at 25°C. The protein surface was regenerated in buffer containing 1 M NaCl and 5 mM EDTA.

T1 sequence (Q9BWP8 26-271): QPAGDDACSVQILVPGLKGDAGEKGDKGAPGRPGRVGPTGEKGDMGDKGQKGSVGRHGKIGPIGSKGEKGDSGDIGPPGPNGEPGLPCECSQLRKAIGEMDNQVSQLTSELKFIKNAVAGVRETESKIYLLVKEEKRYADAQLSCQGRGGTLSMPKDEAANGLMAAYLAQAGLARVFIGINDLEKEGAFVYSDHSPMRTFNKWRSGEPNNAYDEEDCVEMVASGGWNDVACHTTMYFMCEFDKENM

B1: milk lactoferrin: human milk lactoferrin, contains complex sugars (protein, UniProt P02788 20-710, looked up)
Lactotransferrin: GRRRSVQWCAVSQPEATKCFQWQRNMRKVRGPPVSCIKRDSPIQCIQAIAENRADAVTLDGGFIYEAGLAPYKLRPVAAEVYGTERQPRTHYYAVAVVKKGGSFQLNELQGLKSCHTGLRRTAGWNVPIGTLRPFLNWTGPPEPIEAAVARFFSASCVPGADKGQFPNLCRLCAGTGENKCAFSSQEPYFSYSGAFKCLRDGAGDVAFIRESTVFEDLSDEAERDEYELLCPDNTRKPVDKFKDCHLARVPSHAVVARSVNGKEDAIWNLLRQAQEKFGKDKSPKFQLFGSPSGQKDLLFKDSAIGFSRVPPRIDSGLYLGSGYFTAIQNLRKSEEEVAARRARVVWCAVGEQELRKCNQWSGLSEGSVTCSSASTTEDCIALVLKGEADAMSLDGGYVYTAGKCGLVPVLAENYKSQQSSDPDPNCVDRPVEGYLAVAVVRRSDTSLTWNSVKGKKSCHTAVDRTAGWNIPMGLLFNQTGSCKFDEYFSQSCAPGSDPRSNLCALCIGDEQGENKCVPNSNERYYGYTGAFRCLAENAGDVAFVKDVTVLQNTDGNNNEAWAKDLKLADFALLCLDGKRKPVTEARSCHLAMAPNHAVVSRMDKVERLKQVLLHQQAKFGRNGSDCPDKFCLFQSETKNLLFNDNTECLARLHGKTTYEKYLGPQYVAGITNLKKCSTSPLLEACEFLRK
B1: the “binding to CL-K1 by surface plasmon resonance” value is listed as “not”.

The record behind these values is publication PMC4431178, “Molecular basis of sugar recognition by collectin-K1 and the effects of mutations associated with 3MC syndrome” (BMC Biology, 2015).
